Kd data for two molecules are collected here from patent US20150157741A1 (published 2015).

For the test, the target named is T1, Recombinant Human ErbB2/Fc Chimera (produced by R&D Systems) (human, UniProt P04626 23-652).
T1 construct: Bought reagent; Immobilised by amine coupling on a GLM chip, about 3,000 RU; also called HER2; Fc part of the bought chimera not given
As to the kind of experiment: SPR (ProteOn XPR36), ErbB2/Fc amine-coupled on GLM chip, conjugate injected, 1:1 Langmuir fit. The method, then:
The bonding property of the PEG including the capture molecule to HER2 serving as a target molecule was evaluated by a surface plasmon resonance method (SPR). In SPR, the measurement was performed using Proteon (registered trademark) XPR36 (produced by Bio-Rad Laboratories). Recombinant Human ErbB2/Fc Chimera (produced by R&D Systems) was dissolved into an acetate buffer (pH 5.0), and was immobilized by amine coupling to a carboxyl group on the GLM sensor chip surface. The amount of immobilization was about 3,000 RU (Resonance Unit). Subsequently, the PEG including the capture molecule was diluted to various concentrations with a phosphate buffer (pH 7.4) containing 0.005% of Tween20 and was injected into a flow cell at a flow rate of 50 microliters/min. As for the measurement times, an injection time (bonding) was 120 seconds and an elapsed time after stopping of injection (dissociation) was 120 seconds. In a bonding kinetic analysis experiment, sensor grams were analyzed using 1:1 Langmuir fitting model. The bonding property to HER2 was ensured with respect to every sample. In particular, strong bonding property was ensured with respect to scFv-PEG40, Af-PEG20, and Af-PEG40.

Ends that are not written are not given here.

B1: pe-PEG20 (PEG ME-200MA modified with ICG and the HER2-binding peptide of Sequence No. 3) (peptide)
peptide: MARSGLGGKGSC(PEG ME‑200MA)
modifications: also: ICG-Sulfo-OSu conjugated, site not given here
notes: Conjugate with PEG 20k and ICG
As for B1, the Kd (as a rule, the free concentration of one partner at which half of the binding sites on the other are occupied at equilibrium, for simple one-to-one binding) came to 2.6 µM.

B2: pe-PEG40 (PEG ME-400MA modified with ICG and the HER2-binding peptide of Sequence No. 3) (peptide)
peptide: MARSGLGGKGSC(PEG ME‑400MA)
modifications: also: ICG-Sulfo-OSu conjugated, site not given here
notes: Conjugate with PEG 40k and ICG
Regarding B2, the dissociation constant Kd came out at 3.1 µM.
